Molecular target: thrombin, P00734

B1: native tissue plasminogen activator (protein)
chain: SYQVICRDEKTQMIYQQHQSWLRPVLRSNRVEYCWCNSGRAQCHSVPVKSCSEPRCFNGGTCQQALYFSDFVCQCPEGFAGKCCEIDTRATCYEDQGISYRGTWSTAESGAECTNWNSSALAQKPYSGRRPDAIRLGLGNHNYCRNPDRDSKPWCYVFKAGKYSSEFCSTPACSEGNSDCYFGNGSAYRGTHSLTESGASCLPWNSMILIGKVYTAQNPSAQALGLGKHNYCRNPDGDAKPWCHVLKNRRLTWEYCDVPSCSTCGLRQYSQPQFRIKGGLFADIASHPWQAAIFAKHRRSPGERFLCGGILISSCWILSAAHCFQERFPPHHLTVILGRTYRVVPGEEEQKFEVEKYIVHKEFDDDTYDNDIALLQLKSDSSRCAQESSVVRTVCLPPADLQLPDWTECELSGYGKHEALSPFYSERLKEAHVRLYPSSRCTSQHLLNRTVTDNMLCAGDTRSGGPQANLHDACQGDSGGPLVCLNDGRMTLVGIISWGLGCGQKDVPGVYTKVTNYLDWIRDNMRP
- clotting time assay (fibrin mesh formation): fibrin mesh formation in presence or absence of native tPA up to high micro molar concentrations was essentially unaltered compared to buffer controls

Reference: patent US20130136731
